Experimental data: patent US20210388110A1 (published 2021)
Residue numbers refer to the chain shown, from its start.

B1: TR01H083-E22Hh/none-Hi-Kn010G3/L0201-k0 (antibody, human IgG1, kappa, L234A L235A, N297A)
heavy: QVQLVESGGGLVQPGRSLRLSCAASGFTFSNAWMHWVRQAPGKGLEWVAQIKDKSNNYATYYAESVKGRFTISRADSKNSIYLQMNSLKTEDTAVYYCRYVHYAAGYGVDIWGQGTTVTVSSASTKGPSVFPLAPSSKSTSGGTAALGCLVKDYFPEPVTVSWNSGALTSGVHTFPAVLQSSGLYSLSSVVTVPSSSLGTQTYICNVNHKPSNTKVDKKVEPKSCDKTHTCPPCPAPEAAGGPSVFLFPPKPKDTLMISRTPEVTCVVVDVSHEDPEVKFNWYVDGVEVHNAKTKPREEQYASTYRVVSVLTVLHQDWLNGKEYKCKVSNKALPAPIEKTISKAKGQPREPQVYTLPPSRCELTKNQVSLSCAVKGFYPSDIAVEWESNGQPENNYKTTPPVLDSDGSFFLVSKLTVDKSRWQQGNVFSCSVMHEALHNHYTQKSLSLSPDYKDDDDK
chain: EPKSSDKTHTCPPCPAPELLGGPSVFLFPPKPKDTLMISRTPEVTCVVVDVSHEDPEVKFNWYVDGVEVHNAKTKPREEQYNSTYRVVSVLTVLHQDWLNGKEYKCKVSNKALPAPIEKTISKAKGQPREPQVCTLPPSRDELTKNQVSLWCLVKGFYPSDIAVEWESNGQPENNYKTTPPVLDSDGSFFLYSKLTVDKSRWQQGNVFSCSVMHEALHNRYTQKSLSLSP
light: DIVMTQSPLSLPVTPGEPASISCRSSQPPVHSNRNTYLHWYQQKPGQAPRLLIYKVSNRFSGVPDRFSGSGSGTDFTLKISRVEAEDVGVYYCGQGTQVPYTFGQGTKLEIKRTVAAPSVFIFPPSDEQLKSGTASVVCLLNNFYPREAKVQWKVDNALQSGNSQESVTEQDSKDSTYSLSSTLTLSKADYEKHKVYACEVTHQGLSSPVTKSFNRGEC
notes: single-arm
B2: TR01H040-E22Hh/none-Hi-Kn010G3/L0000vk1-k0 (antibody, human IgG1, kappa, L234A L235A, N297A)
heavy: B1 heavy with N56Q, A104S, G106S, I111A
chain: B1 chain
light: DIQMTQSPSSLSASVGDRVTITCRSSQSLVHSNRNTYLHWYQQKPGKAPKLLIYKVSNRFSGVPSRFSGSGSGTDFTFTISSLQPEDIATYYCGQGTQVPYTFGQGTKVEIKRTVAAPSVFIFPPSDEQLKSGTASVVCLLNNFYPREAKVQWKVDNALQSGNSQESVTEQDSKDSTYSLSSTLTLSKADYEKHKVYACEVTHQGLSSPVTKSFNRGEC
notes: single-arm
B3: CE115HA179-G1dh//-Hi-Kn010G3/L0000-k0 (antibody, human IgG1, kappa)
heavy: not shown
chain: B1 chain
light: B1 light with P28S, P29L
notes: single-arm
B4: rCE115H-G1dh//-Hi-Kn010G3/L0000-k0 (antibody, human IgG1, kappa)
heavy: not shown
chain: B1 chain
light: B1 light with P28S, P29L
notes: single-arm
B5: TR01H084-E22Hh/none-Hi-Kn010G3/L0011-k0 (antibody, human IgG1, kappa, L234A L235A, N297A)
heavy: B1 heavy with L11V, R16G, N56Q
chain: B1 chain
light: B1 light with P29L
notes: single-arm
B6: TR01H084-E22Hh/none-Hi-Kn010G3/L0270-k0 (antibody, human IgG1, kappa, L234A L235A, N297A)
heavy: B1 heavy with L11V, R16G, N56Q
chain: B1 chain
light: B1 light with P28S, P29L, N35Q
notes: single-arm
B7: TR01H084-E22Hh/none-Hi-Kn010G3/L0262-k0 (antibody, human IgG1, kappa, L234A L235A, N297A)
heavy: B1 heavy with L11V, R16G, N56Q
chain: B1 chain
light: B1 light with G94A
notes: single-arm
B8: TR01H083-E22Hh/none-Hi-Kn010G3/L0262-k0 (antibody, human IgG1, kappa, L234A L235A, N297A)
heavy: B1 heavy
chain: B1 chain
light: B1 light with G94A
notes: single-arm
B9: CE115HA177-G1dh//-Hi-Kn010G3/L0000-k0 (antibody, human IgG1, kappa)
heavy: not shown
chain: B1 chain
light: B1 light with P28S, P29L
notes: single-arm
B10: TR01H084-E22Hh/none-Hi-Kn010G3/L0272-k0 (antibody, human IgG1, kappa, L234A L235A, N297A)
heavy: B1 heavy with L11V, R16G, N56Q
chain: B1 chain
light: B1 light with P29L, N35Q
notes: single-arm
B11: TR01H100-E22Hh/none-Hi-Kn010G3/L0011-k0 (antibody, human IgG1, kappa, L234A L235A, N297A)
heavy: B1 heavy with N56Q, T60S, A75D, I81L, I111A
chain: B1 chain
light: B1 light with P29L
notes: single-arm
B12: TR01H084-E22Hh/none-Hi-Kn010G3/L0000-k0 (antibody, human IgG1, kappa, L234A L235A, N297A)
heavy: B1 heavy with L11V, R16G, N56Q
chain: B1 chain
light: B1 light with P28S, P29L
notes: single-arm
B13: hCE115HA-E22Hh//-Hi-Kn010G3/L0000-k0 (antibody, human IgG1, kappa, L234A L235A, N297A)
heavy: B1 heavy with L11V, D53A, A75D, I81L, A104G, G106Y, I111A
chain: B1 chain
light: B1 light with P28S, P29L
notes: single-arm
B14: hCE115HA-G1dh//-Hi-Kn010G3/L0000-k0 (antibody, human IgG1, kappa)
heavy: not shown
chain: B1 chain
light: B1 light with P28S, P29L
notes: single-arm
B15: TR01H083-E22Hh/none-Hi-Kn010G3/L0222-k0 (antibody, human IgG1, kappa, L234A L235A, N297A)
heavy: B1 heavy
chain: B1 chain
light: B1 light with P28S, L38I, H39Q, G94Y
notes: single-arm
B16: TR01H084-E22Hh/none-Hi-Kn010G3/L0271-k0 (antibody, human IgG1, kappa, L234A L235A, N297A)
heavy: B1 heavy with L11V, R16G, N56Q
chain: B1 chain
light: B1 light with N35Q
notes: single-arm
B17: CE115HA180-G1dh//-Hi-Kn010G3/L0000-k0 (antibody, human IgG1, kappa)
heavy: not shown
chain: B1 chain
light: B1 light with P28S, P29L
notes: single-arm
B18: TR01H083-E22Hh/none-Hi-Kn010G3/L0212-k0 (antibody, human IgG1, kappa, L234A L235A, N297A)
heavy: B1 heavy
chain: B1 chain
light: B1 light with S25P, P28S, G94Y
notes: single-arm
B19: TR01H084-E22Hh/none-Hi-Kn010G3/L0201-k0 (antibody, human IgG1, kappa, L234A L235A, N297A)
heavy: B1 heavy with L11V, R16G, N56Q
chain: B1 chain
light: B1 light
notes: single-arm
B20: CE115HA178-G1dh//-Hi-Kn010G3/L0000-k0 (antibody, human IgG1, kappa)
heavy: not shown
chain: B1 chain
light: B1 light with P28S, P29L
notes: single-arm

Molecular target: T1, soluble human CD3ε chain (human, UniProt P07766 23-126, limits assumed)
T1 construct: the text says soluble human CD3ε chain; also called human CD3 epsilon chain
Test: SPR (Biacore)

T1 sequence (P07766 23-126 limits assumed): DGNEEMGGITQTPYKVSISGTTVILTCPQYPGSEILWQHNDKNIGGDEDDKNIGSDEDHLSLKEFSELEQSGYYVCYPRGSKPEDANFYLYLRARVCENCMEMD

Row | Kd [nM] | Binder
1 | 4.42 | B1
2 | 46.9 | B2
3 | 8.35 | B3
4 | 57.6 | B4
5 | 19.8 | B5
6 | 27.6 | B6
7 | 8.51 | B7
8 | 2.45 | B8
9 | 35.5 | B9
10 | 31 | B10
11 | 62.5 | B11
12 | 21.3 | B12
13 | 143 | B13
14 | 65 | B14
15 | 9.42 | B15
16 | 27.6 | B16
17 | 16.8 | B17
18 | 0.0586 | B18
19 | 16.5 | B19
20 | 10.9 | B20
